Reference: patent US20080207501A1 (published 2008)
Ends that are not written are not given here.

T1: amylin receptor (nucleus accumbens membranes prepared from rat brain) (rat, UniProt P32214 25-516)
T1 chain 1: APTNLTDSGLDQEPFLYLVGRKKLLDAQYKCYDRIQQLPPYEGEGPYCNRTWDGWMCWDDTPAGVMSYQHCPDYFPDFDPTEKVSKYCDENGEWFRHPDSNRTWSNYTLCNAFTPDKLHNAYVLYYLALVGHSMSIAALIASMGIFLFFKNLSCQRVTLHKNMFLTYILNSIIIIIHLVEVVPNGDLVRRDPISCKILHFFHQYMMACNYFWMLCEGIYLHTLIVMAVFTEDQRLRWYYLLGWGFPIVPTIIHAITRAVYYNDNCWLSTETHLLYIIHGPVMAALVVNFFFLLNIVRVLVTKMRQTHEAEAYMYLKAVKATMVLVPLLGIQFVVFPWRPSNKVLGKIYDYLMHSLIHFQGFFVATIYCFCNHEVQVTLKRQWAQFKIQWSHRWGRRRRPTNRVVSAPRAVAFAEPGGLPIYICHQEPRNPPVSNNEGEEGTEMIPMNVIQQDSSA
T1 chain 2: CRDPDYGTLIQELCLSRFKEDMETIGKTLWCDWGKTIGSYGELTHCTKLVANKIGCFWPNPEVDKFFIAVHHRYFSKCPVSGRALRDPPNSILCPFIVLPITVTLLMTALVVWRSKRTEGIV


Target: T1, amylin receptor (nucleus accumbens …)
Experiment: radioligand binding assay (displacement of radiolabeled amylin)

Row | Binder | EC50 [nM]
1 | TQAQLLRVGCVLGTCQVQNLSHRLWQLMGPAGRQDSAPVDPSSPHSY-NH2 (ends and bridges not checked) [Human AFP-6 [1-47]] | 2.9
2 | CGNLSTCMLGTYTQDFNKFHTFPQTAIGVGAP-NH2 (ends and bridges not checked) [Human Calcitonin] | > 100
